Blank lines part the entries; values can stand above or below the binder they belong to.
Key:
[1] = target: T1, human IL-2Rγ endogenously expressed on NK-92 and Jurkat cells (human, UniProt P31785 23-369); test: flow cytometry, 10 ug/ml antibody, NK-92 cells (endogenous human IL-2Rg)
T1 construct: whole, on cells; on cells it stands with the other receptor subunits of the cell line; also called IL-2Rg; CD132
T1 sequence (looked up): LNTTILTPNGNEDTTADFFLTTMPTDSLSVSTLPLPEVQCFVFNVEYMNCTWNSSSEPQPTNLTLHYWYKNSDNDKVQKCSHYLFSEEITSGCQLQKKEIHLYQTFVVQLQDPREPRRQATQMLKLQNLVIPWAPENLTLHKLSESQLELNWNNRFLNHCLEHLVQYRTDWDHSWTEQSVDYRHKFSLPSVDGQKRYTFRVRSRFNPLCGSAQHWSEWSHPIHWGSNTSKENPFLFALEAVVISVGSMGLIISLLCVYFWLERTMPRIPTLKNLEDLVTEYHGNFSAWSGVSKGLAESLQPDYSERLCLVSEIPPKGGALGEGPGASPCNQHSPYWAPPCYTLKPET
Experimental: For flow cytometry analyses, the cells were pre-incubated with mouse IgG at 100 μg/ml for 15 minutes at room temperature (RT) to block the binding of the antibodies to Fc receptors. […] Cells were washed, fixed using BD CytoFix™ (BD biosciences, #554655) and analyzed on an IQue® (Intellicyt®) Flow Cytometer or Accuri Flow cytometer (BD). […] The results were analyzed using ForeCyt® (IntelliCyt®) software to determine the geometric means of fluorescence (MFI) for viable cells. Binding ratios were calculated by normalizing the MFI of the test sample by the MFI of the unstained sample.

[2] = target: T2, Mouse IL2Rγ extracellular domain expressed with a C-terminal myc-myc-hexahistidine tag (mouse); test: SPR Biacore 4000, anti-hFc-captured mAb, 25 C
T2 construct: whole entry is the tagged construct; also called mIL-2Rg-MMH
T2 chain: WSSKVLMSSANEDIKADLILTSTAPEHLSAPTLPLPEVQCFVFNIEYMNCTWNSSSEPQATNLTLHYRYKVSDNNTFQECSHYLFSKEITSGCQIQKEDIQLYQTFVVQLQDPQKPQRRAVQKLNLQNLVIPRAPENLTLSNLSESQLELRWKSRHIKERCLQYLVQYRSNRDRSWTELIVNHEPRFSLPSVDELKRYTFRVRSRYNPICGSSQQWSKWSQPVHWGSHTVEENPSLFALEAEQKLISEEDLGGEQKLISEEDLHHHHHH
Experimental: (§1) Equilibrium dissociation constants (KD values) for IL-2Rγ binding to purified anti-IL2Rγ monoclonal antibodies were determined using a Biacore 4000 instrument equipped with a real-time surface plasmon resonance biosensor. All binding studies were performed in 10 mM HEPES, 150 mM NaCl, 3 mM EDTA, and 0.05% v/v Surfactant Tween-20, pH 7.4 (HBS-ET) running buffer at 25° C. and 37° C. The Biacore sensor surface was first derivatized by amine coupling with a monoclonal mouse anti-human Fc antibody (GE, # BR-1008-39) to capture anti-IL2Rγ monoclonal antibodies.
(§2) The dissociation of monoclonal antibody bound IL2Rγ reagents were monitored for 8-10 minutes in HBS-ET running buffer. Kinetic association (kₐ) and dissociation (kd) rate constants were determined by fitting the real-time sensorgrams to a 1:1 binding model using Scrubber 2.0c curve fitting software. Binding dissociation equilibrium constants (KD) and dissociative half-lives (t_{1/2}) were calculated from the kinetic rate constants as: […]

[3] = target: T3, Rat IL2Rγ extracellular domain expressed with a C-terminal myc-myc-hexahistidine tag (rat); test: SPR Biacore 4000, anti-hFc-captured mAb, 25 C
T3 construct: whole entry is the tagged construct; also called rIL-2Rg-MMH; rat IL-2Rg-MMH
T3 chain: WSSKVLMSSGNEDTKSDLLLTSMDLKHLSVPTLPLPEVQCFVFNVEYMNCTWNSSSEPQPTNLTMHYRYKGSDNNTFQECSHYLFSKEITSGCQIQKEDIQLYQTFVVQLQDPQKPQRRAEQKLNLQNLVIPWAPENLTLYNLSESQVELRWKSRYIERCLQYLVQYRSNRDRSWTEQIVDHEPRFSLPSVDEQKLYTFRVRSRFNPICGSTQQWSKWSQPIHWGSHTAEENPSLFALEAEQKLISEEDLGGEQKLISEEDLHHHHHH
Experimental: as §1, §2

[4] = target: T4, Macaca fascicularis IL2Rγ extracellular domain expressed with a C-terminal myc-myc-hexahistidine tag (Macaca fascicularis); test: SPR Biacore 4000, anti-hFc-captured mAb, 37 C
T4 construct: whole entry is the tagged construct; also called mfIL-2Rg-MMH
T4 chain: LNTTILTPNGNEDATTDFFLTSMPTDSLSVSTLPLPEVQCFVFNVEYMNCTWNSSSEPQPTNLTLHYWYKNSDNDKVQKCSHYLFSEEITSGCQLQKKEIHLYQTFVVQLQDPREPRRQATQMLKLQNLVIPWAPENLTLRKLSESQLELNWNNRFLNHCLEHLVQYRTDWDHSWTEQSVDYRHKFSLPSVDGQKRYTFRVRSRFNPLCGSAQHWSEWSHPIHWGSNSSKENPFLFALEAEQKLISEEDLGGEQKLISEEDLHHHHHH
Experimental: as §1, §2

[5] = target: T2, Mouse IL2Rγ extracellular domain …; test: SPR Biacore 4000, anti-hFc-captured mAb, 37 C
Experimental: as §1, §2

[6] = target: T3, Rat IL2Rγ extracellular domain …; test: SPR Biacore 4000, anti-hFc-captured mAb, 37 C
Experimental: as §1, §2

[7] = target: T5, human IL2Rγ (endogenously expressed on cells) (human, UniProt P31785 23-369); test: cell-based or functional assay
T5 sequence (looked up): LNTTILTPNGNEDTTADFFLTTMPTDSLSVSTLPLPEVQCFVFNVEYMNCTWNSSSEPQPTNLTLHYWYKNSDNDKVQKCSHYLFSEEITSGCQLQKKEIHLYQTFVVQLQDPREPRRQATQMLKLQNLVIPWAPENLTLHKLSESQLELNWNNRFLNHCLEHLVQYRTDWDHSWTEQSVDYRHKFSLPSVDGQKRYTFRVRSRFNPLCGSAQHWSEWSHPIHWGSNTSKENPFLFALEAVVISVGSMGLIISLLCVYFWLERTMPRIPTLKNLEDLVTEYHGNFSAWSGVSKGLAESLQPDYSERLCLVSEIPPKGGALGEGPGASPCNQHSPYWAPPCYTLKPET

[8] = target: T6, D1 domain of human IL-2Rγ extracellular domain expressed with a C-terminal myc-myc-hexahistidine tag (human); test: SPR, mAb captured on anti-hFc, 25 C
T6 construct: also called human IL2Rγ domain 1
T6 chain: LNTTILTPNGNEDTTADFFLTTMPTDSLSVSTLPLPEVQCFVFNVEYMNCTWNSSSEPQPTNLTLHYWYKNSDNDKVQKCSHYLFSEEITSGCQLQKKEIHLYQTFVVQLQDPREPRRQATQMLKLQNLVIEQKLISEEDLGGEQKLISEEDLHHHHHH
Experimental: as §1, §2

[9] = target: T6, D1 domain of human IL-2Rγ extracellular …; test: SPR, mAb captured on anti-hFc, 37 C
Experimental: as §1, §2

- Binding Ratio (Sample over unstained MFIs) [1]: 3
- Raw MFI [1]: 592 MFI
B1: H4H13545P2 (antibody, human IgG4 S228P, kappa, V domains shown)
VH: QVQLQQSGPGLVKPSQTLSLTCDISGDSVSSNIATWNWIRQSPSRGLEWLGRTYYRSKWYKDYAVSVKSRITINPDTSKNQFSLQVNSVTPEDTAVYYCARMTGPRYYFEYWGQGTLVTVSS
VL: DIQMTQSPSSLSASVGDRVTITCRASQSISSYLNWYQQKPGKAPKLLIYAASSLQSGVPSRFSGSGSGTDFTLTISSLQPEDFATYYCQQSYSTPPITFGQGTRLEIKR
notes: fully human anti-IL2Rg antibody, human IgG4

- Binding Ratio (Sample over unstained MFIs) [1]: 24
- Raw MFI [1]: 4650 MFI
B2: H4H13544P2 (antibody, human IgG4 S228P, kappa, V domains shown)
VH: QLQLQESGPGLVKPSETLSLTCTVSGGSISIKNYYWGWIRQPPGKGLEWIGSIYYSGTTYYNPSLKSRVTISVDTSKNQFSLKLSSVTAADTAVYHCARHGYSYGHGWFDPWGQGTLVTVSS
VL: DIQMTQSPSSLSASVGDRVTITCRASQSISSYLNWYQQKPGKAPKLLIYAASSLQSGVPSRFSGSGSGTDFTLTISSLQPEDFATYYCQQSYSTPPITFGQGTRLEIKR
notes: as for B1

- 100 nM Ag Bound [2]: 2 RU
- binding result [2]: no binding (tested: 100 nM)
- 100 nM Ag Bound [3]: 2 RU
- binding result [3]: no binding (tested: 100 nM)
- 100 nM Ag Bound [4]: 10 RU
- Kd [4]: 320 nM
- koff [4]: 0.0201 s⁻¹
- kon [4]: 62800 M⁻¹ s⁻¹
- t1/2 [4]: 36 s
- 100 nM Ag Bound [5]: 0 RU
- 100 nM Ag Bound [6]: 1 RU
B3: H4H12859P (antibody, human IgG4 S228P, kappa, V domains shown)
VH: QVQLVQSGAEVKKPGASVRVSCKASGYTFTDYDIHWVRQAPGHGLEWMGWINPNSGGTNYAQKFQGRVTMTRDTSISTVYMDLSRLRSDDTAVYYCARADYSSSYYYYGMDVWGQGTTVTVSS
VL: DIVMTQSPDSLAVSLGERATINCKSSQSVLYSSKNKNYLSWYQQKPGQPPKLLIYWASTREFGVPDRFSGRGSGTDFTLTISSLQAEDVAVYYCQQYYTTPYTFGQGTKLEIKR
notes: fully human anti-IL2Rgamma mAb, human IgG4 Fc

- IC50; IL-2 30 pM; NK92/hIL7R/STAT3-luc [7]: > 1e-07 M
- IC50; IL-4 250 pM; Ramos.2G6.4C10/STAT3-luc [7]: 3.8e-08 M
- IC50; IL-7 50 pM; NK92/hIL7R/STAT3-luc [7]: 1.6e-08 M
- IC50; IL-9 20 pM; NK92/hIL7R/STAT3-luc [7]: > 1e-07 M
- IC50; IL-15 60 pM; NK92/hIL7R/STAT3-luc [7]: > 1e-07 M
- Max Inhibition (%); IL-2 30 pM; NK92/hIL7R/STAT3-luc [7]: 44%
- Max Inhibition (%); IL-4 250 pM; Ramos.2G6.4C10/STAT3-luc [7]: 96%
- Max Inhibition (%); IL-7 50 pM; NK92/hIL7R/STAT3-luc [7]: 94%
- Max Inhibition (%); IL-9 20 pM; NK92/hIL7R/STAT3-luc [7]: 83%
- Max Inhibition (%); IL-15 60 pM; NK92/hIL7R/STAT3-luc [7]: 78%
- 100 nM Ag Bound [8]: 0 RU
- 100 nM Ag Bound [9]: 1 RU
- binding result [9]: no binding (tested: 100 nM)
B4: H4H12857P (antibody, human IgG4 S228P, kappa, V domains shown)
VH: EVQLVESGGGVVRPGGSLRLSCAASGFTFDDFDMSWVRQGPGKGLEWVSGINWHGSSTGYADSVKGRFTISRDNAKNSLYLQMSSLRAEDTALYHCVRGGTIVGATTPLDYWGQGTLVTVSS
VL: DIQMTQSPSSLSASVGDRVTMTCRASRTISSYLSWYQQKSGKVPNLLIFGASSLQSGVPSRFSASGSGTDFTLIISSLQPEDFATYYCQQSYSSPLTFGGGTKVEIKR
notes: human IgG4; also called REGN9432

Reference: patent US20200247894A1 (Regeneron, published 2020)
